According to IntAct's records for PubMed 11226162:

B1: E3 ubiquitin-protein ligase COP1 (Arabidopsis thaliana (Mouse-ear cress)), P43254 (parent)
chain: MEEISTDPVVPAVKPDPRTSSVGEGANRHENDDGGSGGSEIGAPDLDKDLLCPICMQIIKDAFLTACGHSFCYMCIITHLRNKSDCPCCSQHLTNNQLYPNFLLDKLLKKTSARHVSKTASPLDQFREALQRGCDVSIKEVDNLLTLLAERKRKMEQEEAERNMQILLDFLHCLRKQKVDELNEVQTDLQYIKEDINAVERHRIDLYRARDRYSVKLRMLGDDPSTRNAWPHEKNQIGFNSNSLSIRGGNFVGNYQNKKVEGKAQGSSHGLPKKDALSGSDSQSLNQSTVSMARKKRIHAQFNDLQECYLQKRRQLADQPNSKQENDKSVVRREGYSNGLADFQSVLTTFTRYSRLRVIAEIRHGDIFHSANIVSSIEFDRDDELFATAGVSRCIKVFDFSSVVNEPADMQCPIVEMSTRSKLSCLSWNKHEKNHIASSDYEGIVTVWDVTTRQSLMEYEEHEKRAWSVDFSRTEPSMLVSGSDDCKVKVWCTRQEASVINIDMKANICCVKYNPGSSNYIAVGSADHHIHYYDLRNISQPLHVFSGHKKAVSYVKFLSNNELASASTDSTLRLWDVKDNLPVRTFRGHTNEKNFVGLTVNSEYLACGSETNEVYVYHKEITRPVTSHRFGSPDMDDAEEEAGSYFISAVCWKSDSPTMLTANSQGTIKVLVLAA
partner: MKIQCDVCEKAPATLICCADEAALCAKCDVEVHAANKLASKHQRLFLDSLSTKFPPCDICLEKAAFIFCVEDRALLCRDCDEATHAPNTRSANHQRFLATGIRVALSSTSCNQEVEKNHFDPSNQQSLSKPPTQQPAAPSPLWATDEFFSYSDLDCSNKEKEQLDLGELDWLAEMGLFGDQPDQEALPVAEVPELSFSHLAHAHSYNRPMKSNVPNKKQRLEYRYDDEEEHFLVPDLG
B2: B-box zinc finger protein 25 (Arabidopsis thaliana (Mouse-ear cress)), Q9SID1 (parent)
chain: B1 partner
partner: B1 chain
B3: E3 ubiquitin-protein ligase COP1 (Arabidopsis thaliana (Mouse-ear cress)), P43254 (parent)
chain: B1 chain
partner: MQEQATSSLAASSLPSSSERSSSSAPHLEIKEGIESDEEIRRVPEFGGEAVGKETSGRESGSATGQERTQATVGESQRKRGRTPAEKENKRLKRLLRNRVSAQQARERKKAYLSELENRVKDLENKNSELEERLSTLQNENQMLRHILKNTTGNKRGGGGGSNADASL
B4: Transcription factor HY5 (Arabidopsis thaliana (Mouse-ear cress)), O24646 (parent)
chain: B3 partner
partner: B1 chain
B5: E3 ubiquitin-protein ligase COP1 (Arabidopsis thaliana (Mouse-ear cress)), P43254 (parent)
chain: B1 chain
partner: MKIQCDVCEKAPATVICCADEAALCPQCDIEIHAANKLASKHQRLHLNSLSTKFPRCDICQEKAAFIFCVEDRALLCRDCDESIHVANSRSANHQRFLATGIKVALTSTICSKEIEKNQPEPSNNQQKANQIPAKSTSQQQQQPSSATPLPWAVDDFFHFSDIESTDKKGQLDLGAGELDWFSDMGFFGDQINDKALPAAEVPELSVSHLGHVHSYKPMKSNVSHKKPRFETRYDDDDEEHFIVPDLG

Variants of: B1
Conditions: with bbx25_arath BBX25, Q9SID1

Row | Variant | effect of a mutation on the interaction
1 | K422E | decreasing interaction
2 | W467A | decreasing interaction
3 | G524E | decreasing interaction
4 | E592R | increasing interaction
5 | R465E | decreasing interaction
6 | K550E | decreasing interaction

Variants of: B2
Conditions: with cop1_arath COP1, P43254

Row | Variant | effect of a mutation on the interaction
7 | V234A;P235A | decreasing interaction

Variants of: B3
Conditions: with hy5_arath HY5, O24646

Row | Variant | effect of a mutation on the interaction
8 | W467A | decreasing interaction
9 | E592R | increasing interaction
10 | K550E | decreasing interaction
11 | K422E | increasing interaction
12 | G524E | decreasing interaction

Variants of: B4
Conditions: with cop1_arath COP1, P43254

Row | Variant | effect of a mutation on the interaction
13 | V43A;P44A | decreasing interaction

Variants of: B5
Conditions: with BBX24, Q96288-1

Row | Variant | effect of a mutation on the interaction
14 | K550E | decreasing interaction
15 | G524E | decreasing interaction
16 | K422E | decreasing interaction
17 | R465E | decreasing interaction
18 | W467A | decreasing interaction
19 | E592R | increasing interaction
